From publication PMC6625990 (2019)
No end group written: not given here. *: point of attachment. Biotin = O=C1N[C@H]2[C@H](CS[C@H]2CCCCC(=O)*)N1

Biological target: T1, bovine Ric8A1–492 (bovine, UniProt Q5E9J8 1-492)
T1 chain: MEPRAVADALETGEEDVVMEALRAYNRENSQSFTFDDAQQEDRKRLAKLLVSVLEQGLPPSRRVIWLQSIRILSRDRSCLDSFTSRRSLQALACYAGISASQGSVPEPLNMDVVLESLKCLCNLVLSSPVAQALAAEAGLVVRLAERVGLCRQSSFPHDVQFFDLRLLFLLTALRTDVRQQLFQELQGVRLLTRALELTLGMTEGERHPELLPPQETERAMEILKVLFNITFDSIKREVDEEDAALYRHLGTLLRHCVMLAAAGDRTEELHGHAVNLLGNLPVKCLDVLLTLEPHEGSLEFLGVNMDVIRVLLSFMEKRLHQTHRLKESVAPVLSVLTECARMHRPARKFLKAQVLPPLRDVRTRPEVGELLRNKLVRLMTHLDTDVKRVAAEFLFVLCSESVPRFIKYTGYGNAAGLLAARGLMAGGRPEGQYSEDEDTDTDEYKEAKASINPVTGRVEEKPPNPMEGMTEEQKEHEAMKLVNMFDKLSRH
Experiment: BLI

| Binder | Kd |
| --- | --- |
| Biotin-NDCRDIIIRMNLRQCGLF (cysteine pairing not given here) [peptide C2] | 0.063 µM |
| Biotin-NDCRDIIQRMHLRQYELL [Gαs363–380] | 4.4 µM |
| Biotin-NDCRDIIQRMHLRQCGLF (cysteine pairing not given here) [peptide C1] | 4.7 µM |
